To fix the notation:
B1: Azoarcus group I ribozyme (parent)
chain: GUGCCUUGCGCCGGGAAACCACGCAAGGGAUGGUGUCAAAUUCGGCGAAACCUAAGCGCCCGCCCGGGCGUAUGGCAACGCCGAGCCAAGCUUCGGCGCCUGCGCCGAUGAAGGUGUAGAGACUAGACGGCACCCACCUAAGGCAAACGCUAUGGUGAAGGCAUAGUCCAGGGAGUGGCGAAAGUCACACAAACCGG

Our source for the reverse-splicing fitness values is the RNAGym collection of RNA variant scans (doi:10.1093/molbev/msab373).

This series covers variants of B1. Kind of series: reverse-splicing fitness (ratio to wild type); higher = more active; in vitro selection; Mg2+ level not given. An outline of the steps:
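An in vitro group I ribozyme library with randomized positions was T7-transcribed and gel-purified. In triplicate, 10 pmol RNA in EPPS pH 7.5 was reacted with 50 pmoles of a 30-nt RNA substrate for 1 h at 37 °C across several added MgCl2 levels (1–48 mM), then stopped with EDTA. Products were reverse transcribed from a substrate-complementary primer, PCR-amplified and sequenced (HiSeq 4000). Fitness is a variant's read proportion after selection over that before, normalised to wild type.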
C82A A111C A120G A145C C150G C169U U176G: the reverse-splicing fitness came to 0.00551.

Consider C82A A111C A120G A145C C150G C169U U176C, for which the reverse-splicing fitness stood at 0.0101.

In the case of C82A A111C A120C A145G C150A C169U U176C, the reverse-splicing fitness was 0.0136.

C82A A111C A120C A145G C150A C169U U176G: the reverse-splicing fitness was 0.00795.

In the case of C82A A111C A120C A145G C150A C169U U176A, the reverse-splicing fitness turned out to be 0.0154.

As for C82A A111C A120G A145C C150G C169G U176A, the reverse-splicing fitness was found to be 0.00836.

As to C82A A111C A120G A145C C150G C169G U176G, the reverse-splicing fitness is 0.00475.

As for C82A A111C A120G A145C C150G C169G U176C, the reverse-splicing fitness turned out to be 0.00766.

For C82A A111C A120C A145G C169A, the reverse-splicing fitness is 0.00886.

C82A A111C A120C A145G C169G: the reverse-splicing fitness was 0.00846.

In the case of C82A A111C A120C A145G C169U, the reverse-splicing fitness is 0.0141.

C82A A111C A120G A145G C150A C169G: the reverse-splicing fitness is 0.00887.

In the case of C82A A111C A120G A145G C150A C169U, the reverse-splicing fitness came out at 0.00923.

Take C82A A111C A120G A145G C150A C169A: the reverse-splicing fitness turned out to be 0.0099.

Consider C82A A111C A120G A145C C150G C169A U176A, for which the reverse-splicing fitness stood at 0.00786.

For C82A A111C A120G A145C C150G C169A U176G, the reverse-splicing fitness came out at 0.00531.

For C82A A111C A120G A145C C150G C169A U176C, the reverse-splicing fitness came to 0.00612.

Take C82A A111C A120C A145G C150U C169G: the reverse-splicing fitness worked out at 0.00829.

Take C82A A111C A120C A145G C150U C169U: the reverse-splicing fitness turned out to be 0.0133.

In the case of C82A A111C A120C A145G C150U C169A, the reverse-splicing fitness was found to be 0.0108.

On to C82A A111C A120C A145G C169U U176A, for which the reverse-splicing fitness turned out to be 0.0165.

C82A A111C A120C A145G C169U U176G: the reverse-splicing fitness was found to be 0.00652.

For C82A A111C A120C A145G C169U U176C, the reverse-splicing fitness came to 0.0138.

On to C82A A111C A120C C150G C169A, for which the reverse-splicing fitness was 0.00831.

For the variant C82A A111C A120C C150G C169U, the reverse-splicing fitness was determined as 0.0115.

As for C82A A111C A120C C150G C169G, the reverse-splicing fitness was found to be 0.00682.

Take C82A A111C A120C A145U U176A: the reverse-splicing fitness was found to be 0.0147.

In the case of C82A A111C A120C A145U U176C, the reverse-splicing fitness came out at 0.0164.

Regarding C82A A111C A120C A145U U176G, the reverse-splicing fitness was 0.00692.

With C82A A111C A120C U176C, the reverse-splicing fitness turned out to be 0.0216.

Take C82A A111C A120C U176A: the reverse-splicing fitness amounted to 0.0134.

Turning to C82A A111C A120C U176G, the reverse-splicing fitness was 0.00722.

C82A A111C A120G A145G C150A: the reverse-splicing fitness amounted to 0.00888.

Consider C82A A111C A120G A145G C150U, for which the reverse-splicing fitness was determined as 0.0128.

For the variant C82A A111C A120G A145G C150G, the reverse-splicing fitness is 0.00731.

As to C82A A111C A120C A145C C150G U176C, the reverse-splicing fitness stood at 0.00754.

Take C82A A111C A120C A145C C150G U176A: the reverse-splicing fitness turned out to be 0.00409.

For C82A A111C A120C A145C C150G U176G, the reverse-splicing fitness came out at 0.0029.

Take C82A A111C A120C C169U: the reverse-splicing fitness was 0.0124.

Take C82A A111C A120C C169G: the reverse-splicing fitness turned out to be 0.0083.

In the case of C82A A111C A120C C169A, the reverse-splicing fitness came to 0.00922.

With C82A A111C A120C C150A C169U U176A, the reverse-splicing fitness is 0.0173.

With C82A A111C A120C C150A C169U U176G, the reverse-splicing fitness was 0.00868.

Consider C82A A111C A120C C150A C169U U176C, for which the reverse-splicing fitness was found to be 0.015.

C82A A111C A120C A145G C150U C169U U176A: the reverse-splicing fitness was 0.0121.

On to C82A A111C A120C A145G C150U C169U U176C, for which the reverse-splicing fitness came to 0.0128.

With C82A A111C A120C A145G C150U C169U U176G, the reverse-splicing fitness stood at 0.00717.

Turning to C82A A111C A120C A145C C169A U176G, the reverse-splicing fitness is 0.00646.

As for C82A A111C A120C A145C C169A U176C, the reverse-splicing fitness is 0.00859.

With C82A A111C A120C A145C C169A U176A, the reverse-splicing fitness came out at 0.0158.

On to C82A A111C A120G A145C C169G U176C, for which the reverse-splicing fitness is 0.0156.

On to C82A A111C A120G A145C C169G U176G, for which the reverse-splicing fitness stood at 0.00472.

On to C82A A111C A120G A145C C169G U176A, for which the reverse-splicing fitness stood at 0.0239.

Regarding C82A A111C A120G A145G C150G C169A, the reverse-splicing fitness is 0.00875.

As to C82A A111C A120G A145G C150G C169U, the reverse-splicing fitness came out at 0.00877.

Consider C82A A111C A120G A145G C150G C169G, for which the reverse-splicing fitness was 0.00706.

On to C82A A111C A120G, for which the reverse-splicing fitness stood at 0.0149.

C82A A111C A120C A145C C150U U176A: the reverse-splicing fitness is 0.00941.

As for C82A A111C A120C A145C C150U U176G, the reverse-splicing fitness amounted to 0.00571.

Turning to C82A A111C A120C A145C C150U U176C, the reverse-splicing fitness amounted to 0.0125.

In the case of C82A A111C A120C A145G C150U, the reverse-splicing fitness came out at 0.0241.

As for C82A A111C A120C A145G C150G, the reverse-splicing fitness came to 0.00852.

In the case of C82A A111C A120C A145G C150A, the reverse-splicing fitness stood at 0.0108.

Consider C82A A111C A120C A145U C150A C169U U176A, for which the reverse-splicing fitness amounted to 0.014.

For the variant C82A A111C A120C A145U C150A C169U U176G, the reverse-splicing fitness is 0.00918.

Regarding C82A A111C A120C A145U C150A C169U U176C, the reverse-splicing fitness is 0.0143.

Take C82A A111C A120C A145U C169A: the reverse-splicing fitness was determined as 0.00864.

As to C82A A111C A120C A145U C169U, the reverse-splicing fitness amounted to 0.0133.

For C82A A111C A120C A145U C169G, the reverse-splicing fitness came out at 0.0102.

For C82A A111C A120C C169U U176G, the reverse-splicing fitness came out at 0.00697.

Consider C82A A111C A120C C169U U176A, for which the reverse-splicing fitness was 0.0152.

For the variant C82A A111C A120C C169U U176C, the reverse-splicing fitness came out at 0.0149.

Take C82A A111C A120G A145C C150A C169U U176G: the reverse-splicing fitness is 0.00495.

With C82A A111C A120G A145C C150A C169U U176C, the reverse-splicing fitness worked out at 0.00893.

As for C82A A111C A120G A145C C150A C169U U176A, the reverse-splicing fitness was determined as 0.0142.

In the case of C82A A111C A120C A145G C150A C169A U176A, the reverse-splicing fitness came to 0.0209.

For C82A A111C A120C A145G C150A C169A U176C, the reverse-splicing fitness is 0.019.

For C82A A111C A120C A145G C150A C169A U176G, the reverse-splicing fitness came out at 0.009.

Turning to C82A A111C A120C A145U C150G, the reverse-splicing fitness is 0.00822.

C82A A111C A120C A145U C150A: the reverse-splicing fitness was 0.00979.

With C82A A111C A120C A145U C150U, the reverse-splicing fitness came out at 0.0202.

Take C82A A111C A120C A145C C150U C169A U176G: the reverse-splicing fitness worked out at 0.00751.

For the variant C82A A111C A120C A145C C150U C169A U176A, the reverse-splicing fitness turned out to be 0.0145.
